Measured values reported in PMC9496542, “The Ni(II)-Binding Activity of the Intrinsically Disordered Region of Human NDRG1, a Protein Involved in Cancer Development” (Biomolecules, 2022).
“And” between values parts separate entries of the source, which are not always exact repeats. Equal values may be shown once.

Experiments:
[1] = molecular target: the molecule itself; test: SEC-MALS; SEC-MALS-QELS; hNDRG1 300 uL at 140 uM on Superdex 200 10/300 GL; 20 mM HEPES pH 7.5, 150 mM NaCl, 1 mM TCEP; room temperature, 0.5 mL/min; without or with Ni(II); SEC also run with 10 mM DTT; monomer, dimer and tetramer in equilibrium
[2] = molecular target: the molecule itself; test: SDS-PAGE under nondenaturing conditions with Western blot; HeLa cells untreated or treated with 1 mM NiSO4 for 24 h; lysed under nondenaturing conditions; lysates in native sample buffer; blot with an antibody against the N-terminal region of NDRG1
[3] = molecular target: the molecule itself; test: SDS-PAGE under nondenaturing conditions with Western blot; A549 cells untreated or treated with 1 mM NiSO4 for two days; total lysates and nuclear extracts; Western blot with anti-NDRG1

B1: full-length human NDRG1 (N-terminal Strep-tagged, recombinant) (natural protein)
chain: not shown
notes: No cleavage of the tag is described for the full-length protein; also called hNDRG1; N-myc downstream-regulated gene 1 protein; source: E. coli BL21-CodonPlus (DE3) RiL, purified (StrepTrap HP, Superdex 200)
[1]
  stoichiometry N: 4 and 2

B2: endogenous hNDRG1 in HeLa cells (natural protein)
chain: not shown
notes: human NDRG1, endogenous protein of HeLa cells, detected with an antibody against the N-terminal region of NDRG1; source: endogenous, HeLa lysate
[2]
  stoichiometry N: 2 and 4

B3: endogenous hNDRG1 in A549 cells (natural protein)
chain: not shown
notes: human NDRG1, endogenous protein of the lung carcinoma-derived A549 cells, detected by Western blot with anti-NDRG1; source: endogenous, A549 lysate
[3]
  stoichiometry N: 4
